In the supplement of paper PMC7125110:
± gives the standard error. For part of these data: Fewer inactive variants are shown than the library holds.

B1: glmS ribozyme (parent)
chain: AUAAAAGCGCCAGAACUACAGAAAUGUAGUUGACGAGGAGGAGGUUUAUCGAAUUUUCGGCGGAUGCCUCCAAA

What was measured:
Settings in all cases: with glucosamine-6-phosphate
glucosamine-6-phosphate [1] = variants of: B1; experiment: kcat; higher = faster cleavage; RNA array
Procedure, shortened: (§1)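 Glucosamine-6-phosphate in HEPES/KCl/Mg(OAc)2 buffer, at 40 μM to 10 mM, was flowed over barcoded ribozyme variants transcribed in situ by E. coli RNA polymerase on sequenced MiSeq chips. Tracking was through a hybridised Cy3 probe at 37 °C. kobs, kcat and KM came from exponential decay fits and weighted Michaelis–Menten fits of normalised per-tile medians.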

glucosamine-6-phosphate [2] = variants of: B1; experiment: KM; higher = weaker cofactor use; RNA array
Procedure, shortened: as §1

glucosamine-6-phosphate [3] = variants of: B1; experiment: self-cleavage kobs at 40 uM GlcN6P; higher = faster cleavage; RNA array
Procedure, shortened: as §1

glucosamine-6-phosphate [4] = variants of: B1; experiment: self-cleavage kobs at 160 uM GlcN6P; higher = faster cleavage; RNA array
Procedure, shortened: as §1

glucosamine-6-phosphate [5] = variants of: B1; experiment: self-cleavage kobs at 640 uM GlcN6P; higher = faster cleavage; RNA array
Procedure, shortened: as §1

glucosamine-6-phosphate [6] = variants of: B1; experiment: self-cleavage kobs at 10000 uM GlcN6P; higher = faster cleavage; RNA array
Procedure, shortened: as §1

glucosamine-6-phosphate [7] = variants of: B1; experiment: self-cleavage kobs at 2500 uM GlcN6P; higher = faster cleavage; RNA array
Procedure, shortened: as §1

Variant | kcat (glucosamine-6-phosphate [1]) [s⁻¹] | KM (glucosamine-6-phosphate [2]) [µM] | self-cleavage kobs at 40 uM GlcN6P (glucosamine-6-phosphate [3]) [s⁻¹] | self-cleavage kobs at 160 uM GlcN6P (glucosamine-6-phosphate [4]) [s⁻¹] | self-cleavage kobs at 640 uM GlcN6P (glucosamine-6-phosphate [5]) [s⁻¹] | self-cleavage kobs at 10000 uM GlcN6P (glucosamine-6-phosphate [6]) [s⁻¹] | self-cleavage kobs at 2500 uM GlcN6P (glucosamine-6-phosphate [7]) [s⁻¹]
U31A C50A | 1.34e-05 ± 6.2e-07 | 605 ± 190 | < 1e-05 | < 1e-05 | < 1e-05 | – | –
U30G U31G | 0.0304 ± 0.012 | – | 0.00149 ± 0.00022 | – | 0.0102 ± 0.0017 | 0.036 ± 0.0081 | –
U31C A64U | < 1e-05 | – | – | – | – | – | –
U31C A64G | 0.00541 ± 0.0022 | – | 7.83e-05 ± 1.1e-05 | 0.000159 ± 2.1e-05 | 0.00109 ± 0.00013 | 0.00363 ± 0.00047 | 0.00224 ± 0.00024
U31C C67G | 4.05e-05 ± 1e-06 | 467 ± 76 | < 1e-05 | – | 2.33e-05 ± 8.8e-06 | 3.83e-05 ± 5.5e-06 | 3.49e-05 ± 6.3e-06
U31C C67U | 0.00122 ± 0.00016 | 1290 ± 260 | 4.68e-05 ± 7.4e-06 | 0.000125 ± 2e-05 | 0.000375 ± 4.8e-05 | 0.00115 ± 0.00016 | 0.000785 ± 0.00011
U31G G62U C71G | < 1e-05 | – | – | – | – | – | –
U31A G44A | 0.00023 ± 5.7e-05 | 4780 ± 2400 | – | – | – | 0.000151 ± 2.1e-05 | 9.2e-05 ± 1.5e-05
U31A C58A | 0.00103 ± 0.00024 | – | – | – | – | 0.000242 ± 3.7e-05 | –
U31G C50U | 2.22e-05 ± 1.4e-06 | – | < 1e-05 | – | – | – | –
U31C C61A | 3.08e-05 ± 1.2e-05 | – | – | – | – | < 1e-05 | –
U31A U57G | 4.33e-05 ± 3.3e-06 | 2970 ± 780 | – | – | – | 3.33e-05 ± 1.1e-05 | –
U31G U45A | 0.0285 ± 0.0073 | 2180 ± 720 | 0.000531 ± 0.00011 | 0.00206 ± 0.0004 | 0.00653 ± 0.0013 | 0.0291 ± 0.0063 | 0.0105 ± 0.0037
U31A A39G | 0.0529 ± 0.014 | 4340 ± 1300 | 0.000491 ± 7.7e-05 | 0.00202 ± 0.00038 | 0.00495 ± 0.0018 | 0.0363 ± 0.0095 | 0.0245 ± 0.0078
U31A A39U | 0.0125 ± 0.0029 | 3370 ± 1000 | 0.000161 ± 2.9e-05 | 0.000508 ± 8.4e-05 | 0.00196 ± 0.00029 | 0.00871 ± 0.0014 | 0.00802 ± 0.0015
U31G C34A G37U C67U | 3.45e-05 ± 1.2e-05 | – | – | – | – | – | –
U31C C50U | < 1e-05 | – | – | – | – | – | –

Variant | kcat (glucosamine-6-phosphate [1]) [s⁻¹] | KM (glucosamine-6-phosphate [2]) [µM] | self-cleavage kobs at 40 uM GlcN6P (glucosamine-6-phosphate [3]) [s⁻¹] | self-cleavage kobs at 160 uM GlcN6P (glucosamine-6-phosphate [4]) [s⁻¹] | self-cleavage kobs at 640 uM GlcN6P (glucosamine-6-phosphate [5]) [s⁻¹] | self-cleavage kobs at 10000 uM GlcN6P (glucosamine-6-phosphate [6]) [s⁻¹] | self-cleavage kobs at 2500 uM GlcN6P (glucosamine-6-phosphate [7]) [s⁻¹]
U31C U55C | 0.00793 ± 0.00044 | 3750 ± 300 | 8.92e-05 ± 2.1e-05 | 0.000317 ± 6.4e-05 | 0.00116 ± 0.00021 | 0.00585 ± 0.00073 | 0.00284 ± 0.00079
U31C U55G | 0.0059 ± 0.0019 | 2750 ± 1200 | 0.000126 ± 1.5e-05 | 0.000291 ± 3.8e-05 | 0.00104 ± 0.00018 | 0.00547 ± 0.00061 | 0.0022 ± 0.00033
U31C C34G | 1.37e-05 ± 8.9e-07 | 1370 ± 240 | – | – | – | – | –
U31G A48U U55G A64G | 0.000666 ± 0.00016 | 3200 ± 1500 | – | – | 0.0001 ± 2.9e-05 | 0.000484 ± 9.1e-05 | 0.000437 ± 0.00013
U31G G37U | < 1e-05 | – | – | – | – | – | –
U31A U54A | 0.011 ± 0.003 | 1640 ± 590 | 0.000241 ± 4.8e-05 | 0.00112 ± 0.00023 | 0.00342 ± 0.00062 | 0.0126 ± 0.0031 | 0.00508 ± 0.0013
U31C G37U G62C A64U C70A | < 1e-05 | – | < 1e-05 | – | – | < 1e-05 | –
U31C U65A | 0.000435 ± 5.4e-05 | 2000 ± 480 | – | 3.17e-05 ± 1.3e-05 | 0.000114 ± 1.8e-05 | 0.000385 ± 5.2e-05 | 0.000217 ± 3.2e-05
U31A G40A | 0.00231 ± 0.00021 | 1250 ± 170 | 7.32e-05 ± 1.2e-05 | 0.000266 ± 0.00011 | 0.000717 ± 0.00016 | 0.00201 ± 0.00033 | 0.00206 ± 0.00066
U31A A42U | 0.000111 ± 8.8e-06 | 3380 ± 670 | – | – | – | 8.19e-05 ± 1.4e-05 | 5.06e-05 ± 1.3e-05
U31C C71A | 0.000686 ± 0.00019 | 1470 ± 630 | 3.6e-05 ± 1.1e-05 | 7.42e-05 ± 8.6e-06 | 0.00018 ± 1.9e-05 | 0.00057 ± 7.8e-05 | 0.000669 ± 9.6e-05
U31G A53C | 0.00293 ± 0.00056 | 2500 ± 770 | 3.19e-05 ± 1.2e-05 | 0.000223 ± 5.6e-05 | 0.000646 ± 0.00015 | 0.00219 ± 0.00037 | 0.00165 ± 0.00028
U31C C58U | 2.26e-05 ± 7.2e-06 | – | – | – | – | – | 2.64e-05 ± 1.3e-05
U31A C67G | 0.000586 ± 0.00013 | 3660 ± 1500 | – | – | 0.0001 ± 2.6e-05 | 0.000456 ± 7.3e-05 | 0.000201 ± 4.4e-05
U31G A52G | 0.000431 ± 4.6e-05 | 2820 ± 530 | – | – | 8.36e-05 ± 1.2e-05 | 0.000352 ± 4.6e-05 | 0.000178 ± 3.1e-05
U30G C70G | 0.000136 ± 7.2e-06 | 439 ± 110 | – | – | 9.18e-05 ± 2.2e-05 | 0.000127 ± 1.4e-05 | 0.000124 ± 2.3e-05
U31C C68G | 1.29e-05 ± 2.8e-06 | – | – | – | – | – | –
